Patent US20230332166A1, “FORMATE-INDUCIBLE PROMOTERS AND METHODS OF USE THEREOF” (Imperial College Innovations Ltd, priority 2020, published 2023)

Tested on: Y. lipolytica JMY2900
Assay: qPCR of putative FDH gene transcription upon induction with sodium formate
Type: cell-based, Yarrowia lipolytica
Settings: YNB with 0.5% sodium formate, 6 h, 28° C., vs absence of formate; qPCR normalised to actin
Description: FIG. 3: Transcription levels of the FDH genes of Yarrowia lipolytica W29 measured by qPCR, normalised to actin (ACT1) expression. Yarrowia lipolytica was grown in YNB supplemented with 1% glucose and 0.5% yeast extract at 15 h at 28° C., before being washed and transferred into YNB with 0.5% of sodium formate for induction and grown for 6 h.
The inducibility of the putative FDH genes with formate was then tested by qPCR. YALI0E14256g1_1 and the nine putative FDH with the highest % identity to YALI0E14256g1_1 were selected for testing. Y. lipolytica JMY2900 was cultured in YNB media supplemented with 1% glucose and 0.5% yeast extract for 15 h at 28° C. Cells were washed with distilled water and cultured in fresh liquid YNB media supplemented with 0.5% sodium formate at 28° C. with agitation at 160 rpm, before being harvested at 6 h post-inoculated. Cells were frozen in liquid nitrogen and stored at −80° C. RNA was subsequently extracted using the RNeasy Mini Kit (Qiagen), and 2 μg was treated with DNAse (Ambion; Life Science Technologies, Saint-Aubain, France). cDNA was synthesised using the Maxima First Strand cDNA synthesis kit (Thermo Fischer Scientific, Villebon sur Yvette, France). qPCR was then performed using the SYBRgreen mastermix (Thermo Fischer Scientific) with gene-specific primers designed using Primer3 software. Relative expression levels were calculated using ΔCT and ΔΔCT methods. Expression levels were normalised to actin.

Molecule	Fold increase on induction (fold change expression of putative FDH genes upon induction with sodium formate) [fold]
Yali0F15983: putative Y. lipolytica FDH gene; promoter region SEQ ID NO: 3 (1 Kb) and 19 (1.5 Kb) (nucleic acid, listed as Yarrowia lipolytica, YALI0F15983g) DNA: ATGAAGGTCCTTCTTATTCTCTACTCTGCCGGTTCTCACGCCGTTGACGAGCCCAAGCTACTCGGTTGCACTGAGAACGAGCTCGGTCTCCGAAAGTGGCTCGAGTCCCGGGGCCACACGCTTGTGACCACCTCTTCAAAGGAGGGAGCCGACTCTGTGCTCGACAAGGAGATTGTCGATGCCGACATTGTCATCACTACTCCCTTCCACCCCGGTTACATCACCCGAGAGCGAATCGCCAAGGCCAAGAACCTCAAAATTTGCATCACTGCCGGTGTTGGTTCGGACCACGTCGATCTTGATGCTGCCAACGAGCGAGATATTGCCGTTCTCGAGGTCACTGGCTCCAACGTGCAGTCTGTGGCTGAGCACGTTGTCATGACCATGCTGGTCCTGGTCCGAAACTTTGTGCCTGCCCACGAGCAGGTCATGGCTGGTGGCTGGGACGTTGCTGCTGTCGCCAAGGACTCCTACGACATTGAGGGAAAGGTCATTGGTACTGTGGGAGGTGGCCGAATTGGTCAGCGAGTCCTAAAGCGAGTTGCTCCCTTCAACCCTAAGGAGATGCTCTACTACGACTACCAGGGTCTGTCTGCTGAGACCGAGAAGGAGCTGAACTGCCGACGAGTCGAGAAGCTCGAGGATATGCTTGCCCAGTGTGATATCGTCACCATCAACTGTCCCCTCCACGAGTCCACCAAGGGTCTCTTCAACAAGGAGATGCTCTCTCACATGAAGAAAGGTGCCTGGCTTGTCAACACCGCTCGAGGAGCCATCTGTGTCAAGGAAGACGTTGCTGAGGCTCTCAAGAACGGCCAGCTGCGAGGCTACGGAGGTGACGTCTGGTTCCCCCAGCCTGCTCCCGCTGACCACCCCTGGAGATCCATGCGAAACAAGTACGGAGCTGGAAACGCCATGACCCCCCATATCTCCGGTACTTGCATCGATGCCCAGGTTCGGTACGCCCAGGGAACCAAGAACATTCTCGACATGTTCTTCTCCGGTAAGCAGGACTACCGACCCCAGGACATCATCTGCATCAACGGTCACTACGGAACCAAGGCCTACGGTGATGACAAGGAGCATGCTAAAAAGTAGGCTGGACGTCGAAATAAACACATTGTTCATCTCTGGGTAGCCCAATAGTAAATAGGTAAGCTGTGATCATTA	4.2
Yali0A21353: putative Y. lipolytica FDH gene; promoter region SEQ ID NO: 2 (1 Kb) and 18 (1.5 Kb) (nucleic acid, listed as Yarrowia lipolytica, YALI0A12353g) DNA: ATGAAGGTCCTTCTTATTCTCTACGATGCCGGCTCCCACGCCAAGGACGAGCCCAAGCTGCTTGGATGCACCGAGAACGAGCTTGGTATTCGAGACTGGCTCGAGTCGCAGGGCCACACTCTCGTCACCACCTCTTCCAAGGACGGTGCCGACTCTGTGCTTGACAAGGAGATTGTTGACGCTGATGTAGTCATCACCACCCCGTTCCACCCCGGCTACATCAACAAGGAGCGAATTGACAAGGCCAAGAAGCTCAAGATCTGCATCACCGCCGGTGTCGGCTCCGACCACGTGGACCTCGATGCTGCCAACGCCCGAAACATTGCCGTTCTCGAGGTCACCGGCTCGAACGTCCAGTCCGTCGCTGAGCATGTTGTCATGACCATGCTGGTGCTGGTCCGAAACTTTGTCCCTGCCCACGAGCAGATTATTTCTGGCGGCTGGGACGTTGCTGCGGTTGCCAAGGACTCTTACGATCTCGAGGGCAAGGTCATCGGTACCGTTGGAGGCGGTCGAATCGGCCAGCGAGTGCTCAAGCGATGCAAGCCCTTTGACCCCATGGAGATGCTCTACTACGACTACCAGGCTATGCCAGCTGATGTGGAGAATGAGATTGGATGCCGACGAGTCGAGTCTCTGGAGGAGATGCTCTCTCTCTGTGACGTTGTAACCATCAACTGTCCTCTCCATGCCTCCACCAAGGGTCTCTTCAACAAGGAGCTCATTTCCCACATGAAGGACGGCGCTTGGCTCGTCAACACTGCTCGAGGAGCCATCTGCGTCACCGAGGACATTGTCGACGCTCTCGAGTCCGGCAAGATCCGAGGCTACGGTGGTGACGTCTGGTTCCCCCAGCCTGCCCCCAAGGACCACCCCTGGAGAACCATGCGAAACAAGTACGGCGGTGGAAACGCCATGACTCCCCATATCTCCGGTACTTCCATCGACGCCCAGGGCCGATACGCTGAGGGTACCAAGAAGATTCTTGAGGTCTTTTTCTCTGGCAAGCAGGATTACCGCCCCCAGGACATTATCTGCATCAACGGTCACTACGGTACCAAGGCTTACGGTGACGACAAGGAGCACAAGGCCCACGTTTCCAAGTAGCTGTTTAACTTATATAAGCAATTGACTGGATTTGATAACGA	7.9
Yali0C08074: putative Y. lipolytica FDH gene; promoter region SEQ ID NO: 5 (1 Kb) and 21 (1.5 Kb) (nucleic acid, listed as Yarrowia lipolytica, YALI0C08074g) DNA: ATGAAGGTCCTTCTTGTTCTTTACGATGCTGGCTCCCATGCCAAGGATGAGCCCAAGCTGCTTGGATGCACCGAGAACGAGCTCGGTATCAGAGACTGGCTCGAGTCTCAGGGACATACCCTTGTAACTACGTCTTCCAAGGACGGTGCCGACTCTGTCCTCGACAAGGAGATTGTCGATGCCGATGTAGTCATCACCACCCCCTTTCATCCTGGATACATCAACAAGGAGCGAATCGACAAAGCCAAGAAGCTCAAGATTTGCATCACTGCTGGTGTCGGCTCTGACCACGTCGATCTCGACGCTGCCAACGCCCGAGATATTGCTGTTCTCGAAGTCACCGGCTCCAATGTCCAGTCTGTTGCCGAGCACGTTATCATGACCATGTTGGTCCTGGTGCGAAACTTTGTCCCTGCTCACGAGCAGATCATCTCTGGCGGTTGGGACGTTGCTGCTGTTGCCAAGGACTCATACGATCTCGAGGGTAAGGTCATCGGCACCGTTGGAGGAGGCCGAATTGGCCAGCGAGTGCTCAAGCGATGCAAGCCCTTCGACCCCATGGAGATGCTCTACTACGACTATCAGGCCATGCCAGCTGACGTTGAGAAGGAGATTGGATGTCGTCGAGTCGAGTCTCTCGAGGAGATGCTCTCTCTTTGTGACGTGGTCACCATCAACTGCCCTCTGCACGCTTCCACCAAGGGCCTGTTCAACAAAGAGCTCATCTCGCACATGAAGGATGGTGCCTGGCTCGTTAACACCGCTCGAGGAGCCATTTGTGTCACCGAGGACATTGTCGAGGCTCTCGAGTCCGGTAAGATCCGAGGTTACGGCGGAGACGTTTGGTTCCCCCAGCCTGCCCCTAAGGACCACCCCTGGAGAACCATGCGAAACAAGTACGGGGGAGGAAACGCCATGACTCCTCATATCTCCGGAACTTCCATCGACGCCCAGGGCCGATATGCCGAGGGCACCAAGAAGATCCTTGAGGTTTTCTTTTCTGGAAAGCAGGATTATCGACCCCAGGACATTATCTGCATCAATGGTCACTACGGCACAAAAGCTTACGGAGATGACAAGGAGCACAAGGAGCACCAGCTCAAGTAAATATATATAGCTAGAAACATATCTCGTTGTTGCTT	3.7
